Source: article PMC4241754 (Biochemistry, 2010)

Target: the molecule itself
Experiment: crystal structure

B1: WlbA from Pseudomonas aeruginosa (enzyme)
chain: MASKNFALIGAAGYIAPRHMRAIKDTGNCLVSAYDINDSVGIIDSISPQSEFFTEFEFFLDHASNLKRDSATALDYVSICSPNYLHYPHIAAGLRLGCDVICEKPLVPTPEMLDQLAVIERETDKRLYNILQLRHHQAIIALKDKVAREKSPHKYEVDLTYITSRGNWYLKSWKGDPRKSFGVATNIGVHFYDMLHFIFGKLQRNVVHFTSEYKAAGYLEYEQARVRWFLSVDANDLPESVKGKKPTYRSITVNGEEMEFSEGFTDLHTTSYEEILAGRGYGIDDARHCVETVNTIRSAVIVPASDNEGHPFVAALAR
- stoichiometry N: 4
